# ± gives the uncertainty stated by the source.
# Assay: self-splicing fitness, log relative to wild type (ln ratio); higher = more splicing; Tetrahymena group I intron in knt gene, E. coli kanamycin selection, DiMSum; sequences stand for … in CUCUCU…GGAGGGAAAAGUUAUCAGGCAUGCACCUGGUAGCUAGUCUUUAAACCAAUAGAUUGCAUCGGUUUAAAAGGCAAGACCGUCAAAUUGCGGGAAAGGGGUCAACAGCCGUUCAGUACCAAGUCUCAGGGGAAACUUUGAGAUGGCCUUGCAAAGGGUAUGGUAAUAAGCUGACGGACAUGGUCCUAACCACGCAGCCAAGUCCUAAGUCAACAGAUCUUCUGUUGAUAUGGAUGCAGUUCACAGACUAAAUGUCGGUCGGGGAAGAUGUAUUCUUCUCAUAAGAUAUAGUCGGACCUCUCCUUAAUGGGAGCUAGCGGAUGAAGUGAUGCAACACUGGAGCCGCUGGGAACUAAUUUGUAUGCGAAAGUAUAUUGAUUAGUUUUGGAGUACUCGUGGUCG
# Outline: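 A randomised library covering all eight P1ex-region intron nucleotides was built with the intron in the knt kanamycin-resistance gene on pET-22b(+) and held in E. coli BL21(DE3). Cells were grown overnight at 37°C or 30°C on LB agar, with or without 25 μg/mL kanamycin, plus 100 μg/mL carbenicillin, 50 μM IPTG and 0.2% rhamnose, and pooled colonies were amplicon-sequenced on an Illumina HiSeq 2500. DiMSum fitness is the error-weighted combination of wild-type-normalised replicate fold changes, kanamycin versus none.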
Sequence,self-splicing fitness (ln) (30 °C),self-splicing fitness (ln) (37 °C)
UGUAAGCAAUAUUACGAAUC,-1.82 ± 0.25,-2.33 ± 0.49
UGUAAGCAAUAUUACGACCU,-0.205 ± 0.13,-0.0468 ± 0.12
UGUAAGCAAUAUUACGAGCG,0.195 ± 0.1,0.758 ± 0.14
UGUAAGCAAUAUUACGAUAC,-2.7 ± 0.28,-2.07 ± 0.26
UGUAAGCAAUAUUACGAUCA,0.319 ± 0.079,0.535 ± 0.13
UGUAAGCAAUAUUACGAUCU,0.361 ± 0.11,0.0759 ± 0.13
UGUAAGCAAUAUUACGAUGC,-3.75 ± 0.27,-2.34 ± 0.28
UGUAAGCAAUAUUACGCAGG,-3.22 ± 0.16,-3.06 ± 0.24
UGUAAGCAAUAUUACGCAUA,-0.865 ± 0.18,-1.69 ± 0.17
UGUAAGCAAUAUUACGCCGG,-1.46 ± 0.12,-0.237 ± 0.13
UGUAAGCAAUAUUACGCGCU,-0.925 ± 0.078,-0.315 ± 0.11
UGUAAGCAAUAUUACGCUUA,-1.79 ± 0.15,-2.39 ± 0.19
UGUAAGCAAUAUUACGCUUG,-4.2 ± 0.42,-1.99 ± 0.21
UGUAAGCAAUAUUACGGAGA,-2.88 ± 0.32,-1.97 ± 0.42
UGUAAGCAAUAUUACGGGUG,-0.874 ± 0.18,-0.00955 ± 0.19
UGUAAGCAAUAUUACGGUAU,,-1.68 ± 0.21
UGUAAGCAAUAUUACGGUCG,0.275 ± 0.081,-0.0342 ± 0.098
UGUAAGCAAUAUUACGGUGC,-3.82 ± 0.35,-2.13 ± 0.26
UGUAAGCAAUAUUACGGUGU,-3.61 ± 0.22,-0.0793 ± 0.17
UGUAAGCAAUAUUACGUAAA,-2.36 ± 0.19,-1.02 ± 0.16
UGUAAGCAAUAUUACGUCCU,-0.564 ± 0.074,0.215 ± 0.079
UGUAAGCAAUAUUACGUCUG,-0.606 ± 0.07,0.32 ± 0.093
UGUCAGCAAUAUUACGAAAA,-1.06 ± 0.095,-0.75 ± 0.096
UGUCAGCAAUAUUACGAACA,-0.481 ± 0.068,0.521 ± 0.086
UGUCAGCAAUAUUACGAACC,-0.269 ± 0.27,-0.024 ± 0.26

Sequence,self-splicing fitness (ln) (30 °C),self-splicing fitness (ln) (37 °C)
UGUCAGCAAUAUUACGAACU,-0.744 ± 0.086,-0.0942 ± 0.086
UGUCAGCAAUAUUACGAGCG,0.308 ± 0.083,0.59 ± 0.11
UGUCAGCAAUAUUACGAGGC,-1.97 ± 0.26,-3.1 ± 0.32
UGUCAGCAAUAUUACGAGUC,-3.49 ± 0.26,-2.78 ± 0.25
UGUCAGCAAUAUUACGAUUA,-0.198 ± 0.061,0.519 ± 0.088
UGUCAGCAAUAUUACGCAGC,-3.7 ± 0.32,-0.622 ± 0.24
UGUCAGCAAUAUUACGCCCC,-0.691 ± 0.29,0.0501 ± 0.3
UGUCAGCAAUAUUACGCCCG,-0.222 ± 0.15,-0.125 ± 0.21
UGUCAGCAAUAUUACGCUCC,-0.598 ± 0.29,-1.2 ± 0.34
UGUCAGCAAUAUUACGCUGC,-3.54 ± 0.43,-0.934 ± 0.25
UGUCAGCAAUAUUACGGCGG,-0.922 ± 0.084,0.0377 ± 0.12
UGUCAGCAAUAUUACGUCCU,-0.0922 ± 0.06,-0.325 ± 0.073
UGUCAGCAAUAUUACGUCUU,-0.331 ± 0.071,-0.0647 ± 0.09
UGUCAGCAAUAUUACGUGCC,-0.825 ± 0.12,-0.182 ± 0.14
UGUCAGCAAUAUUACGUGCU,-3.51 ± 0.25,-2.23 ± 0.24
UGUCAGCAAUAUUACGUGGU,-4.15 ± 0.18,-1.96 ± 0.11
UGUCAGCAAUAUUACGUGUA,-0.648 ± 0.056,0.127 ± 0.074
UGUCAGCAAUAUUACGUUUC,,-2.07 ± 0.28
UGUGAGCAAUAUUACGAACU,-0.733 ± 0.14,0.203 ± 0.21
UGUGAGCAAUAUUACGACGG,-1.3 ± 0.34,-0.759 ± 0.28
UGUGAGCAAUAUUACGAGCA,-0.913 ± 0.16,-0.797 ± 0.21
UGUGAGCAAUAUUACGAUCU,-1.57 ± 0.15,-0.175 ± 0.14
UGUGAGCAAUAUUACGCCUG,-1.48 ± 0.16,-1.05 ± 0.16
UGUGAGCAAUAUUACGCGAU,-3.88 ± 0.33,-3.57 ± 0.37
UGUGAGCAAUAUUACGCGCG,-1.13 ± 0.43,

Sequence,self-splicing fitness (ln) (30 °C),self-splicing fitness (ln) (37 °C)
UGUGAGCAAUAUUACGCGGA,-2.4 ± 0.2,-1.31 ± 0.21
UGUGAGCAAUAUUACGGACA,-1.44 ± 0.13,0.089 ± 0.13
UGUGAGCAAUAUUACGGCCA,-0.0854 ± 0.18,0.465 ± 0.34
UGUGAGCAAUAUUACGGCGC,-1.23 ± 0.33,
UGUGAGCAAUAUUACGGGAA,,-2.51 ± 0.33
UGUGAGCAAUAUUACGGGGA,-2.36 ± 0.29,-1.65 ± 0.33
UGUGAGCAAUAUUACGUAGC,-4.22 ± 0.42,-1.65 ± 0.29
UGUGAGCAAUAUUACGUUCU,-3.79 ± 0.33,-3.12 ± 0.4
UGUUAGCAAUAUUACGAAGA,,-1.54 ± 0.4
UGUUAGCAAUAUUACGACGG,-0.352 ± 0.16,-0.218 ± 0.18
UGUUAGCAAUAUUACGACUA,0.407 ± 0.22,-0.164 ± 0.19
UGUUAGCAAUAUUACGAGGG,-3.43 ± 0.26,-1.84 ± 0.23
UGUUAGCAAUAUUACGAUUU,-0.79 ± 0.11,-1.55 ± 0.14
UGUUAGCAAUAUUACGCAGA,-0.741 ± 0.46,-0.752 ± 0.3
UGUUAGCAAUAUUACGCAUU,-2.6 ± 0.27,-1.47 ± 0.2
UGUUAGCAAUAUUACGCCAA,-1.32 ± 0.19,-1.4 ± 0.23
UGUUAGCAAUAUUACGCCUU,-0.953 ± 0.37,-1.4 ± 0.33
UGUUAGCAAUAUUACGCGGG,-2.74 ± 0.29,-1.57 ± 0.26
UGUUAGCAAUAUUACGCGUU,-1.38 ± 0.1,-1.01 ± 0.11
UGUUAGCAAUAUUACGCUAG,-1.94 ± 0.5,-1.4 ± 0.47
UGUUAGCAAUAUUACGCUGA,-2.26 ± 0.44,
UGUUAGCAAUAUUACGGCCA,0.385 ± 0.17,0.166 ± 0.14
UGUUAGCAAUAUUACGGUAA,-1.05 ± 0.1,-0.0801 ± 0.097
UGUUAGCAAUAUUACGGUUA,-0.39 ± 0.086,0.504 ± 0.088
UGUUAGCAAUAUUACGUAAC,-1.65 ± 0.46,-1.55 ± 0.5

Sequence,self-splicing fitness (ln) (30 °C),self-splicing fitness (ln) (37 °C)
UGUUAGCAAUAUUACGUACG,-0.624 ± 0.17,0.229 ± 0.22
UGUUAGCAAUAUUACGUGCG,-1.23 ± 0.11,-0.303 ± 0.14
UGUUAGCAAUAUUACGUGUA,-2.88 ± 0.16,-0.349 ± 0.1
UGUUAGCAAUAUUACGUGUU,-3.3 ± 0.29,-3.27 ± 0.47
UGUUAGCAAUAUUACGUUGU,-3.71 ± 0.28,-2.3 ± 0.17
UUAAAGCAAUAUUACGACAG,0.285 ± 0.1,0.0597 ± 0.14
UUAAAGCAAUAUUACGAGGC,-3.94 ± 0.37,-2.36 ± 0.29
UUAAAGCAAUAUUACGAGGG,-2.1 ± 0.17,-1.12 ± 0.26
UUAAAGCAAUAUUACGAUAU,-1.05 ± 0.11,-0.358 ± 0.13
UUAAAGCAAUAUUACGAUCU,-0.857 ± 0.065,-0.22 ± 0.088
UUAAAGCAAUAUUACGAUGA,0.452 ± 0.081,0.681 ± 0.11
UUAAAGCAAUAUUACGAUGG,0.00244 ± 0.084,0.04 ± 0.1
UUAAAGCAAUAUUACGCCCA,0.818 ± 0.11,0.402 ± 0.14
UUAAAGCAAUAUUACGCGCG,-0.058 ± 0.12,0.00297 ± 0.16
UUAAAGCAAUAUUACGCUAU,-3.01 ± 0.14,-0.748 ± 0.1
UUAAAGCAAUAUUACGCUUA,-1.02 ± 0.083,-0.561 ± 0.11
UUAAAGCAAUAUUACGGAGA,-1.64 ± 0.15,0.00703 ± 0.2
UUAAAGCAAUAUUACGGCUA,0.185 ± 0.091,0.424 ± 0.12
UUAAAGCAAUAUUACGGGGA,-1.02 ± 0.068,0.216 ± 0.1
UUAAAGCAAUAUUACGGGGC,-3.68 ± 0.25,-2.51 ± 0.32
UUAAAGCAAUAUUACGGUCG,0.224 ± 0.082,0.441 ± 0.095
UUAAAGCAAUAUUACGGUUC,-3.46 ± 0.19,-1.81 ± 0.18

# — the supplement of paper PMC7877785
